Data taken from the supplement of paper PMC7877785.
± gives the uncertainty stated by the source.

Experiment: self-splicing fitness, log relative to wild type (ln ratio); higher = more splicing; Tetrahymena group I intron in knt gene, E. coli kanamycin selection, DiMSum; sequences stand for … in CUCUCU…GGAGGGAAAAGUUAUCAGGCAUGCACCUGGUAGCUAGUCUUUAAACCAAUAGAUUGCAUCGGUUUAAAAGGCAAGACCGUCAAAUUGCGGGAAAGGGGUCAACAGCCGUUCAGUACCAAGUCUCAGGGGAAACUUUGAGAUGGCCUUGCAAAGGGUAUGGUAAUAAGCUGACGGACAUGGUCCUAACCACGCAGCCAAGUCCUAAGUCAACAGAUCUUCUGUUGAUAUGGAUGCAGUUCACAGACUAAAUGUCGGUCGGGGAAGAUGUAUUCUUCUCAUAAGAUAUAGUCGGACCUCUCCUUAAUGGGAGCUAGCGGAUGAAGUGAUGCAACACUGGAGCCGCUGGGAACUAAUUUGUAUGCGAAAGUAUAUUGAUUAGUUUUGGAGUACUCGUGGUCG
Method in brief: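 Colonies from six replicate transformations of E. coli BL21(DE3) were pooled and amplicon-sequenced on an Illumina HiSeq 2500. The library placed an intron with all eight P1ex-region nucleotides randomised inside the knt kanamycin-resistance gene on pET-22b(+), and cells grew overnight at 37°C or 30°C on LB agar with or without 25 μg/mL kanamycin (plus 100 μg/mL carbenicillin, 50 μM IPTG, 0.2% rhamnose). Fitness is the DiMSum error-weighted combination of wild-type-normalised replicate fold changes, kanamycin versus none.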

Sequence | self-splicing fitness (ln) (30 °C) | self-splicing fitness (ln) (37 °C)
GUACAGCAAUAUUACGGCCC | -0.268 ± 0.088 | -0.155 ± 0.11
GUACAGCAAUAUUACGGUAU | -4.07 ± 0.18 | -2.45 ± 0.16
GUACAGCAAUAUUACGGUCU | -0.535 ± 0.084 | -0.00413 ± 0.11
GUACAGCAAUAUUACGUACA | -3 ± 0.15 | -1.63 ± 0.098
GUACAGCAAUAUUACGUAGG | -2.79 ± 0.15 | -0.471 ± 0.12
GUACAGCAAUAUUACGUCAU | -1.7 ± 0.09 | -1.13 ± 0.11
GUACAGCAAUAUUACGUUGC | -3.96 ± 0.13 | -3.05 ± 0.14
GUACAGCAAUAUUACGUUUA | -2.62 ± 0.15 | -1.89 ± 0.11
GUACAGCAAUAUUACGUUUG | -3.06 ± 0.13 | -2.59 ± 0.17
GUAGAGCAAUAUUACGAAAU | -1 ± 0.15 | -1.21 ± 0.17
GUAGAGCAAUAUUACGAACU | -1.19 ± 0.23 | -0.867 ± 0.24
GUAGAGCAAUAUUACGAAGA | -3.65 ± 0.29 | -2.22 ± 0.43
GUAGAGCAAUAUUACGCAAC | -1.79 ± 0.24 | -0.94 ± 0.39
GUAGAGCAAUAUUACGCACA | -0.23 ± 0.14 | -0.117 ± 0.14
GUAGAGCAAUAUUACGCAGU | -1.39 ± 0.11 | -1.45 ± 0.17
GUAGAGCAAUAUUACGCGCA | -0.299 ± 0.1 | 0.0346 ± 0.13
GUAGAGCAAUAUUACGCGUC | -0.836 ± 0.18 | -0.0736 ± 0.22
GUAGAGCAAUAUUACGGCGG | -1.86 ± 0.12 | -1.99 ± 0.18
GUAGAGCAAUAUUACGGGAC | -1.46 ± 0.2 | -1.13 ± 0.15
GUAGAGCAAUAUUACGGUGU | -1.82 ± 0.081 | -1.23 ± 0.099
GUAGAGCAAUAUUACGGUUC | -1.84 ± 0.11 | -0.825 ± 0.14
GUAGAGCAAUAUUACGGUUG | -2.62 ± 0.15 | -1.13 ± 0.22
GUAGAGCAAUAUUACGUAAG | -2.29 ± 0.26 | -0.825 ± 0.27
GUAGAGCAAUAUUACGUACG | -1.92 ± 0.19 | -1.35 ± 0.35
GUAGAGCAAUAUUACGUAUU | -2.43 ± 0.12 | -1.42 ± 0.13

Sequence | self-splicing fitness (ln) (30 °C) | self-splicing fitness (ln) (37 °C)
GUAGAGCAAUAUUACGUCCG | -2.26 ± 0.27 | -2.49 ± 0.49
GUAGAGCAAUAUUACGUUGA | -2.98 ± 0.2 | -0.879 ± 0.17
GUAUAGCAAUAUUACGAAAC | – | -1.02 ± 0.49
GUAUAGCAAUAUUACGAACC | -2.63 ± 0.43 | -0.238 ± 0.23
GUAUAGCAAUAUUACGAAGA | -3.64 ± 0.47 | -0.936 ± 0.23
GUAUAGCAAUAUUACGACAA | -0.741 ± 0.27 | -1.34 ± 0.3
GUAUAGCAAUAUUACGACGU | -0.443 ± 0.069 | 0.436 ± 0.092
GUAUAGCAAUAUUACGACUA | -0.438 ± 0.21 | 0.00698 ± 0.23
GUAUAGCAAUAUUACGACUC | -0.23 ± 0.14 | 0.0743 ± 0.23
GUAUAGCAAUAUUACGAGGA | -2.45 ± 0.26 | -2.66 ± 0.38
GUAUAGCAAUAUUACGAGGC | -2.1 ± 0.33 | -2.18 ± 0.47
GUAUAGCAAUAUUACGAGGU | -2.99 ± 0.26 | -0.619 ± 0.28
GUAUAGCAAUAUUACGAUGG | -3.43 ± 0.35 | -0.958 ± 0.24
GUAUAGCAAUAUUACGCAAC | -2.53 ± 0.37 | –
GUAUAGCAAUAUUACGCACC | -1.85 ± 0.17 | -1.66 ± 0.27
GUAUAGCAAUAUUACGCAGU | – | -2.33 ± 0.37
GUAUAGCAAUAUUACGCAUC | -2.15 ± 0.17 | -0.982 ± 0.13
GUAUAGCAAUAUUACGCCGG | -2.45 ± 0.37 | -1.59 ± 0.35
GUAUAGCAAUAUUACGCGUG | -2.13 ± 0.18 | -0.201 ± 0.14
GUAUAGCAAUAUUACGCUCA | – | -0.615 ± 0.36
GUAUAGCAAUAUUACGGAGU | -3.8 ± 0.3 | -3.49 ± 0.29
GUAUAGCAAUAUUACGGCCU | -1.29 ± 0.12 | -0.582 ± 0.16
GUAUAGCAAUAUUACGGUAA | -2.59 ± 0.23 | -1.24 ± 0.15
GUAUAGCAAUAUUACGGUAC | – | -2.25 ± 0.33
GUAUAGCAAUAUUACGUAAG | -1.48 ± 0.13 | -0.567 ± 0.14

Sequence | self-splicing fitness (ln) (30 °C) | self-splicing fitness (ln) (37 °C)
GUAUAGCAAUAUUACGUUCG | -2.09 ± 0.21 | -1.53 ± 0.19
GUAUAGCAAUAUUACGUUUA | -2.74 ± 0.19 | -1.52 ± 0.17
GUCAAGCAAUAUUACGAAAU | -2.14 ± 0.13 | -0.595 ± 0.12
GUCAAGCAAUAUUACGAACA | -2.25 ± 0.22 | -1.24 ± 0.19
GUCAAGCAAUAUUACGACUA | -3.5 ± 0.18 | -2.03 ± 0.12
GUCAAGCAAUAUUACGCAGU | -3.31 ± 0.33 | -1.16 ± 0.19
GUCAAGCAAUAUUACGCCGU | -2.32 ± 0.31 | -0.783 ± 0.27
GUCAAGCAAUAUUACGCGAA | -1.88 ± 0.085 | -0.888 ± 0.091
GUCAAGCAAUAUUACGCGCU | -1.88 ± 0.092 | -0.425 ± 0.087
GUCAAGCAAUAUUACGCUGA | -5.3 ± 0.45 | -3.74 ± 0.42
GUCAAGCAAUAUUACGCUUC | -4.61 ± 0.42 | -2.4 ± 0.25
GUCAAGCAAUAUUACGGCUG | -4 ± 0.3 | –
GUCAAGCAAUAUUACGGCUU | -4.12 ± 0.35 | -2.74 ± 0.31
GUCAAGCAAUAUUACGGGCU | -4.5 ± 0.25 | -4.77 ± 0.31
GUCAAGCAAUAUUACGGGUC | -3.45 ± 0.19 | -2.16 ± 0.18
GUCAAGCAAUAUUACGUCCC | -1.22 ± 0.29 | -0.2 ± 0.26
GUCAAGCAAUAUUACGUGAA | -1.01 ± 0.072 | 0.556 ± 0.083
GUCAAGCAAUAUUACGUGGG | -3 ± 0.13 | -2.23 ± 0.2
GUCAAGCAAUAUUACGUUCC | -1.5 ± 0.11 | -0.728 ± 0.13
GUCCAGCAAUAUUACGACCG | -2.21 ± 0.5 | –
GUCCAGCAAUAUUACGAGAA | -0.724 ± 0.14 | -0.763 ± 0.14
GUCCAGCAAUAUUACGAGCA | -0.945 ± 0.12 | -1.08 ± 0.15
GUCCAGCAAUAUUACGAGCU | – | -1.96 ± 0.31
GUCCAGCAAUAUUACGCACC | -2 ± 0.17 | -0.64 ± 0.17
GUCCAGCAAUAUUACGCACU | -1.58 ± 0.082 | 0.818 ± 0.11

Sequence | self-splicing fitness (ln) (30 °C) | self-splicing fitness (ln) (37 °C)
GUCCAGCAAUAUUACGCGCC | -1.29 ± 0.11 | -0.848 ± 0.14
GUCCAGCAAUAUUACGCGUA | -0.0475 ± 0.068 | 0.185 ± 0.07
GUCCAGCAAUAUUACGCUUU | -0.441 ± 0.06 | 0.678 ± 0.076
GUCCAGCAAUAUUACGGAAC | -1.88 ± 0.12 | -0.802 ± 0.11
GUCCAGCAAUAUUACGGCGC | -0.166 ± 0.15 | 0.208 ± 0.22
GUCCAGCAAUAUUACGGCGG | -4.63 ± 0.42 | -1.4 ± 0.29
GUCCAGCAAUAUUACGGGUC | -1.73 ± 0.13 | -1.7 ± 0.16
GUCCAGCAAUAUUACGGUAA | -0.283 ± 0.086 | 0.647 ± 0.079
GUCCAGCAAUAUUACGUCCA | -1.12 ± 0.077 | -0.579 ± 0.079
GUCCAGCAAUAUUACGUGUG | -1.14 ± 0.064 | -0.529 ± 0.068
GUCCAGCAAUAUUACGUUAG | -3.15 ± 0.11 | -1.19 ± 0.095
GUCCAGCAAUAUUACGUUAU | -0.827 ± 0.058 | 0.329 ± 0.07
GUCGAGCAAUAUUACGAGGG | – | -1.04 ± 0.21
GUCGAGCAAUAUUACGAUGA | -1.6 ± 0.15 | -0.827 ± 0.14
GUCGAGCAAUAUUACGCAGG | – | -3.05 ± 0.38
GUCGAGCAAUAUUACGCCCC | -1.19 ± 0.37 | -1.01 ± 0.31
GUCGAGCAAUAUUACGCCGG | – | -1.99 ± 0.41
GUCGAGCAAUAUUACGCCGU | -1.32 ± 0.3 | -0.299 ± 0.38
GUCGAGCAAUAUUACGCCUC | -1.51 ± 0.23 | -0.868 ± 0.33
GUCGAGCAAUAUUACGGGCA | -2.65 ± 0.4 | -0.9 ± 0.18
GUCGAGCAAUAUUACGGGCU | -2.06 ± 0.23 | -1.53 ± 0.28
GUCGAGCAAUAUUACGGGGA | -2.91 ± 0.3 | -1.39 ± 0.24
GUCGAGCAAUAUUACGGGUC | -2.68 ± 0.39 | –
GUCGAGCAAUAUUACGGUGU | -1.98 ± 0.087 | -1.14 ± 0.11
